The record followed here is US20220340678A1 (MURAL ONCOLOGY, published 2022).

Usually Kd stands for the constant that tells how readily two partners part at equilibrium. As a reminder, the koff is the rate constant with which the complex falls apart. The kon is the rate constant with which the complex forms.

In assay [1] the target is T1, IL-2/IL-15 receptor on HH cells (human).
T1 chain 1: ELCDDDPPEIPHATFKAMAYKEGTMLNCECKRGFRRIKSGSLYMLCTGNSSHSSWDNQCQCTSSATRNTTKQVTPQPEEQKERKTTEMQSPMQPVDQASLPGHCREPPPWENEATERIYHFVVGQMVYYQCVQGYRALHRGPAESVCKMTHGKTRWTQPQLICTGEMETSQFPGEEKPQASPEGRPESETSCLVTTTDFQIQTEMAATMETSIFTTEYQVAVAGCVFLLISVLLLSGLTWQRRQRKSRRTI
T1 chain 2: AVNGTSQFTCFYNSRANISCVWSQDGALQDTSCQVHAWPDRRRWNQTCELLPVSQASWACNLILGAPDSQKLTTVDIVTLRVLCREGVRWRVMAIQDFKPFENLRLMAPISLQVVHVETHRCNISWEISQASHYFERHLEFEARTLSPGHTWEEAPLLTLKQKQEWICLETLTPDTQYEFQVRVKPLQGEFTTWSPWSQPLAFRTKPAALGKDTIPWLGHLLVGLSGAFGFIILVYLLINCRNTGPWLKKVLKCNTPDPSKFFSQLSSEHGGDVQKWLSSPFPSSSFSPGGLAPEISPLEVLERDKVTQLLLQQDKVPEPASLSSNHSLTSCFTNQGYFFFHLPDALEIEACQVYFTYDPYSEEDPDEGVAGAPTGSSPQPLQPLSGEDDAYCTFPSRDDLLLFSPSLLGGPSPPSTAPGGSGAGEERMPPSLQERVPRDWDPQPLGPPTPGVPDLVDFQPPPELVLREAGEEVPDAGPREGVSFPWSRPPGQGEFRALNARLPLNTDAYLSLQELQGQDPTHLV
T1 chain 3: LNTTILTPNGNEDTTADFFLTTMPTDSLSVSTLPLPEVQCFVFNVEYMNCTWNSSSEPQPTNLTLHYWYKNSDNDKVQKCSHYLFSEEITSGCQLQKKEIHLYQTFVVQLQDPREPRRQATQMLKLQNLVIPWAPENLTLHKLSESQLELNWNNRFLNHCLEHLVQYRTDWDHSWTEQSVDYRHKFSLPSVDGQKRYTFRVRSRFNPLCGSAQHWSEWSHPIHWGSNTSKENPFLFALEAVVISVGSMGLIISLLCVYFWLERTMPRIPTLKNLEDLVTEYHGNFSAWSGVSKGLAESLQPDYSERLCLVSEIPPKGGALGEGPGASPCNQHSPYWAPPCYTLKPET
Description: cell-based or functional assay.

The target of assay [2] is Recombinant human uPAR his (R&D Systems, 807-UK-100/CF) (human, UniProt Q03405 23-303, biotinylated (sites not given)). Description: SPR (Biacore), biotinylated human uPAR his on streptavidin chip.
The target of assay [3] is T2, IL-12 p40 C177S variant (human, UniProt P29460 23-328).
T2 sequence: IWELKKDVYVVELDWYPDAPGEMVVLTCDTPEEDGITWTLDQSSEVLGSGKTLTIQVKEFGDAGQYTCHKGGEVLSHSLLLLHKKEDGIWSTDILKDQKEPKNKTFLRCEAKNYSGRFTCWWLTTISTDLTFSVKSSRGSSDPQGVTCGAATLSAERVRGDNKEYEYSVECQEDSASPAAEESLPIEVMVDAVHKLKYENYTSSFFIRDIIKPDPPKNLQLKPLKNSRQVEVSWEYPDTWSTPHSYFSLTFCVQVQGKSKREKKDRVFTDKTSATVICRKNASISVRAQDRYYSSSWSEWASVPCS
The assay is described as follows: BLI (Octet), p35 C74 variant against p40 C177S.

The target in assay [4] is T3, IL-12 p40 C177F variant (human, UniProt P29460 23-328).
T3 sequence: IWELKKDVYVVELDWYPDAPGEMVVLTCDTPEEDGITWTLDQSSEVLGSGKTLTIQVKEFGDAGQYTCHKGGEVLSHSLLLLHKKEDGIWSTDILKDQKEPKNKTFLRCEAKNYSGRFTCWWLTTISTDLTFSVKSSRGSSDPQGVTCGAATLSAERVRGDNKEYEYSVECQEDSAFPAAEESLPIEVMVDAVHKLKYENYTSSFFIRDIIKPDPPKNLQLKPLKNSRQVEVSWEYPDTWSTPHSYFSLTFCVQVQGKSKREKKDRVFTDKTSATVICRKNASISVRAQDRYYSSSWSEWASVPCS
Description: BLI (Octet), p35 C74 variant against p40 C177F. In general terms: Biolayer interferometry detects binding as a change in optical thickness at a sensor tip.

B1: Human IL-15Ra:cpIL-15 (other)
chain: ITCPPPMSVEHADIWVKSYSLYSRERYICNSGFKRKAGTSSLTECVLNKATNVAHWTTPSLKCIRDGGSELEEKNIKEFLQSFVHIVQMFINGGGSNWVNVISDLKKIEDLIQSMHIDATLYTESDVHPSCKVTAMKCFLLELQVISLESGDASIHDTVENLIILANNSLSSNGNVTESGCKEC
Take B1: the “pSTAT5 EC50, HH cells” value in assay [1] stood at 39 pM.

B2: Human uPA-ATF:Human cpIL-2:IL-2Ra:His6 (other)
chain: SNELHQVPSNCDCLNGGTCVSNKYFSNIHWCNCPKKFGGQHCEIDKSKTCYEGNGHFYRGKASTDTMGRPCLPWNSATVLQQTYHAHRSDALQLGLGKHNYCRNPDNRRRPWCYVQVGLKPLVQECMVHDCAGGSGGSKNFHLRPRDLISNINVIVLELKGSETTFMCEYADETATIVEFLNRWITFSQSIISTLTGGSSSTKKTQLQLEHLLLDLQMILNGINNYKNPKLTRMLTFKFYMPKKATELKHLQCLEEELKPLEEVLNLAQGSGGGSELCDDDPPEIPHATFKAMAYKEGTMLNCECKRGFRRIKSGSLYMLCTGNSSHSSWDNQCQCTSSATRNTTKQVTPQPEEQKERKTTEMQSPMQPVDQASLPGHCREPPPWENEATERIYHFVVGQMVYYQCVQGYRALHRGPAESVCKMTHGKTRWTQPQLICTGHHHHHH
notes: also called 98
In the case of B2, in assay [2], the equilibrium dissociation constant (Kd) turned out to be 2.2 nM, the koff was determined as 0.001 s⁻¹ and the kon came to 460000 M⁻¹ s⁻¹.

B3: Human cpIL-2:IL-2Ra:Human uPA-ATF-His6 (other)
chain: SKNFHLRPRDLISNINVIVLELKGSETTFMCEYADETATIVEFLNRWITFSQSIISTLTGGSSSTKKTQLQLEHLLLDLQMILNGINNYKNPKLTRMLTFKFYMPKKATELKHLQCLEEELKPLEEVLNLAQGSGGGSELCDDDPPEIPHATFKAMAYKEGTMLNCECKRGFRRIKSGSLYMLCTGNSSHSSWDNQCQCTSSATRNTTKQVTPQPEEQKERKTTEMQSPMQPVDQASLPGHCREPPPWENEATERIYHFVVGQMVYYQCVQGYRALHRGPAESVCKMTHGKTRWTQPQLICTGGGSGGSNELHQVPSNCDCLNGGTCVSNKYFSNIHWCNCPKKFGGQHCEIDKSKTCYEGNGHFYRGKASTDTMGRPCLPWNSATVLQQTYHAHRSDALQLGLGKHNYCRNPDNRRRPWCYVQVGLKPLVQECMVHDCAHHHHHH
notes: also called 99
Take B3: in assay [1], the “pSTAT5 EC50, HH cells” value stood at 1.5 nM. For the same molecule, in assay [2], the Kd came to 0.59 nM, the koff worked out at 0.00049 s⁻¹ and the on-rate (kon) worked out at 830000 M⁻¹ s⁻¹.

B4: IL-12 p35 C74K variant (other)
chain: RNLPVATPDPGMFPCLHHSQNLLRAVSNMLQKARQTLEFYPCTSEEIDHEDITKDKTSTVEACLPLELTKNESKLNSRETSFITNGSCLASRKTSFMMALCLSSIYEDLKMYQVEFKTMNAKLLMDPKRQIFLDQNMLAVIDELMQALNFNSETVPQKSSLEEPDFYKTKIKLCILLHAFRIRAVTIDRVMSYLNAS
As for B4, in assay [3], the Kd came to 19.6 nM, the koff was found to be 0.000508 s⁻¹ and the kon is 25900 M⁻¹ s⁻¹. In assay [4], this molecule gave a Kd of 18.4 nM, a koff of 0.000295 s⁻¹ and a kon of 16000 M⁻¹ s⁻¹.

B5: IL-12 p35 C74Y variant (other)
chain: RNLPVATPDPGMFPCLHHSQNLLRAVSNMLQKARQTLEFYPCTSEEIDHEDITKDKTSTVEACLPLELTKNESYLNSRETSFITNGSCLASRKTSFMMALCLSSIYEDLKMYQVEFKTMNAKLLMDPKRQIFLDQNMLAVIDELMQALNFNSETVPQKSSLEEPDFYKTKIKLCILLHAFRIRAVTIDRVMSYLNAS
In the case of B5, in assay [3], the Kd amounted to 23.2 nM, the koff worked out at 0.000411 s⁻¹ and the on-rate (kon) was determined as 17700 M⁻¹ s⁻¹. In assay [4], this molecule showed a Kd of 23.8 nM, a koff of 0.000298 s⁻¹ and a kon of 12500 M⁻¹ s⁻¹.

B6: IL-12 p35 C74W variant (other)
chain: RNLPVATPDPGMFPCLHHSQNLLRAVSNMLQKARQTLEFYPCTSEEIDHEDITKDKTSTVEACLPLELTKNESWLNSRETSFITNGSCLASRKTSFMMALCLSSIYEDLKMYQVEFKTMNAKLLMDPKRQIFLDQNMLAVIDELMQALNFNSETVPQKSSLEEPDFYKTKIKLCILLHAFRIRAVTIDRVMSYLNAS
In assay [3], B6 yielded a Kd of 27 nM, an off-rate (koff) of 0.000432 s⁻¹ and a kon of 16000 M⁻¹ s⁻¹. Besides, in assay [4], the Kd was 25.4 nM, the koff turned out to be 0.000291 s⁻¹ and the kon was found to be 11500 M⁻¹ s⁻¹.

B7: His6:Human uPA-ATF:hIL-15Ra:cpIL-15 (other)
chain: HHHHHHSNELHQVPSNCDCLNGGTCVSNKYFSNIHWCNCPKKFGGQHCEIDKSKTCYEGNGHFYRGKASTDTMGRPCLPWNSATVLQQTYHAHRSDALQLGLGKHNYCRNPDNRRRPWCYVQVGLKPLVQECMVHDCAGGSGGITCPPPMSVEHADIWVKSYSLYSRERYICNSGFKRKAGTSSLTECVLNKATNVAHWTTPSLKCIRDGGSELEEKNIKEFLQSFVHIVQMFINGGGSNWVNVISDLKKIEDLIQSMHIDATLYTESDVHPSCKVTAMKCFLLELQVISLESGDASIHDTVENLIILANNSLSSNGNVTESGCKEC
notes: also called 100
Turning to B7, the “pSTAT5 EC50, HH cells” value in assay [1] is 0.18 nM. Moreover, in assay [2], the Kd came out at 1.1 nM, the koff is 0.00056 s⁻¹ and the kon worked out at 500000 M⁻¹ s⁻¹.

B8: Human cpIL-2:IL-2Ra (other)
chain: SKNFHLRPRDLISNINVIVLELKGSETTFMCEYADETATIVEFLNRWITFSQSIISTLTGGSSSTKKTQLQLEHLLLDLQMILNGINNYKNPKLTRMLTFKFYMPKKATELKHLQCLEEELKPLEEVLNLAQGSGGGSELCDDDPPEIPHATFKAMAYKEGTMLNCECKRGFRRIKSGSLYMLCTGNSSHSSWDNQCQCTSSATRNTTKQVTPQPEEQKERKTTEMQSPMQPVDQASLPGHCREPPPWENEATERIYHFVVGQMVYYQCVQGYRALHRGPAESVCKMTHGKTRWTQPQLICTG
As for B8, in assay [1], the “pSTAT5 EC50, HH cells” value was 1.1 nM.
